According to article PMC11928058:

Columns and labels:
[1] = molecular target: Rap1 (mouse (endogenous in immortalized murine lung endothelial cells)) (UniProt P62835); assay: proximity ligation; Duolink PLA read by flow cytometry; immortalized murine lung endothelial cells in suspension, in the dark or with blue light for the indicated times, rabbit anti-SHANK3 and mouse anti-Rap1; signal as fold over a sample without primary antibodies; cells with SHANK3 shRNA as control
[2] = molecular target: Rap1 (mouse (endogenous in immortalized murine lung endothelial cells)) (UniProt P62835); assay: proximity ligation; Duolink PLA read by flow cytometry; immortalized mouse endothelial cells expressing CIBN–GFP–CAAX and CRY2–mCherry–talin, in the dark or with blue light for 30 min at room temperature, fixed, permeabilized, stained with rabbit anti-mCherry and mouse anti-Rap1; with or without overexpressed mAzurite–FLAG–WT SPN

Sequence of UniProt P62835 (P62835 whole entry): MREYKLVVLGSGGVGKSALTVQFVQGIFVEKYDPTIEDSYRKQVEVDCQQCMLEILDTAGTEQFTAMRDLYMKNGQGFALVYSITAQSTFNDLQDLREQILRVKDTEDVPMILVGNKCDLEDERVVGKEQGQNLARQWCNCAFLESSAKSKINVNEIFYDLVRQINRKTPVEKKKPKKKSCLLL

Work on “CRY2–mCherry–talin (full-length mouse talin-1) (from UniProt P26039 1-2541) (natural protein)” yielded a percent reduction of the PLA signal of m4 with m2 after 30 min of blue light [1] of 40% and an increase of the PLA signal with blue light over dark [2] of 10%.
“mAzurite–FLAG–WT SPN (wild-type SPN domain of SHANK3) (domain or fragment)” gave a percent reduction of the PLA signal of m1 with m2 [2] of 70%.
Work on “SH3 and multiple ankyrin repeat domains 3 (SHANK3) (from UniProt Q4ACU6 1-1730) (natural protein)” yielded a PLA signal, fold over the same cells expressing SHANK3 shRNA [1] of 3 fold.
